For assay [1], the target named is T1, recombinant human PD-1-His protein (ECD) (human, UniProt Q15116 25-170).
T1 construct: extracellular domain; Used as ELISA coat and SPR partner; also called rhprotein; antigen; not shown: His tag
Description: SPR, purified antibody, PD-1 antigen. (SPR reads the build-up and loss of mass on a sensor chip optically.)

Assay [2] deals with T2, human PD-1 expressed on cells (human, UniProt Q15116 25-288).
T2 construct: whole, on cells; also called hPD-1; 293 cell line stably expressing human PD-1
Description: flow cytometry on cells overexpressing hPD-1. In general terms: A flow cytometer gives signals particle by particle.

For assay [3], the target named is T1, recombinant human PD-1-His protein (ECD). Description: Q-ELISA of purified antibody on recombinant human PD-1-His, drawn table. The protocol:
For ELISA, the recombinant human PD-1-His protein was O/N coated on a 96-well ELISA plate at 4° C., and blocked with 5% non-fat skim milk at RT for 1 hr. […]
Background: ELISA stands for enzyme-linked immunosorbent assay.

Assay [4] concerns the target T2, human PD-1 expressed on cells. Description: flow cytometry on hPD-1/293 cells, 2nd-hIgG-PE detection; Ctl 2nd-hIgG 0.17, cell only 0.03. The source says:
In addition, each purified humanized antibody was bound to 293 cells expressing human PD-1 and analyzed by flow cytometry.

For assay [5], the target named is T1, recombinant human PD-1-His protein (ECD). Description: SPR; number in the sensorgram panel without name or unit, taken as KD in M because 8.999e-9 stands for 9 nM in FIG 9d.
Assay [6] addresses T2, human PD-1 expressed on cells. Kind of assay: flow cytometry on activated hCD8 T cells from human blood, 2nd-hIgG-PE detection; 2nd-hIgG-PE alone 1.73.
Assay [7] has the same target. Description: cell-based or functional assay.
The target is the same in assay [8]. Kind of assay: cell-based or functional assay. The source holds these as a separate data set.
Assay [9] has as its target T1, recombinant human PD-1-His protein (ECD). Kind of assay: SPR, purified hybridoma antibody, recombinant human PD-1-His (ECD).

The term Kd denotes the equilibrium constant for the complex coming apart. The koff is the rate constant with which the complex falls apart. By kon is commonly meant the second-order rate constant of association.

T2 sequence (Q15116 25-288): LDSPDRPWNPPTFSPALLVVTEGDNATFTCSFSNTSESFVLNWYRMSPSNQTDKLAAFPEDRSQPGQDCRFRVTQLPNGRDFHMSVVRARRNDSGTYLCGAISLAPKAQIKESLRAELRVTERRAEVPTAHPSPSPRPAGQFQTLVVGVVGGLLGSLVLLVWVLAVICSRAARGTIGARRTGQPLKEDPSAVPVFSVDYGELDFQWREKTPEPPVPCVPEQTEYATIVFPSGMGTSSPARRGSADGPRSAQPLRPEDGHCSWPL
T1 sequence (Q15116 25-170): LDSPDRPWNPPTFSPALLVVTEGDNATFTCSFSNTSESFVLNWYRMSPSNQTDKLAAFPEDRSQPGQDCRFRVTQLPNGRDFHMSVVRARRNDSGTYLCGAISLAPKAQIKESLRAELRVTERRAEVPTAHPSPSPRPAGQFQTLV

B1: humanized antibody 8D4 (antibody, V domains shown)
VH: QVQLVQSGAEVKKPGASVKVSCKASGYTFTTYWIHWVRQAPGQGLEWIGYINPTTGYTEYNQKFKDRATLTADKSTSTAYMELSSLRSEDTAVYYCARGVRYYFDYWGKGTTVTVSS
VL: DIVMTQSPDSLAVSLGERATINCKSSQSLLDSRTRKNYLAWYQQKPGQPPKLLIYWASTRESGVPDRFSGSGSGTDFTLTISSLQAEDVAVYYCKQSYNLITFGQGTKLEIK
notes: Humanized antibody
On to B1, for which, in assay [1], the dissociation constant Kd worked out at 29.6 nM, the koff was determined as 0.00176 s⁻¹ and the kon is 59400 M⁻¹ s⁻¹. Besides, the “percent of cells in the positive quadrant” value (shortened to “percent of cells”) in assay [2] was determined as 96.2%. For the same molecule, in assay [3], the “OD=405, row 1 of 8 (1/2 serial dilution from 500ng)” value turned out to be 3.35; the “OD=405, row 2 of 8 (1/2 serial dilution from 500ng)” value is 3.31; the “OD=405, row 3 of 8 (1/2 serial dilution from 500ng)” value worked out at 3.33; the “OD=405, row 4 of 8 (1/2 serial dilution from 500ng)” value is 3.26. Also, in assay [3], the “OD=405, row 5 of 8 (1/2 serial dilution from 500ng)” value turned out to be 2.95; the “OD=405, row 6 of 8 (1/2 serial dilution from 500ng)” value stood at 2.41; the “OD=405, row 7 of 8 (1/2 serial dilution from 500ng)” value worked out at 1.61; the “OD=405, row 8 of 8 (1/2 serial dilution from 500ng)” value turned out to be 0.975. The “percent of cells” value in assay [4] came to 96.1%. In addition, in assay [5], the Kd turned out to be 18.5 nM.

B2: 8D4-T16-02 (antibody, V domains shown)
VH: QVQLVQSGAEVKKPGASVKVSCKASGYTFTTYWIHWVRQAPGQGLEWIGYINPTTGYTEYNQKFKDRATLTADKSTSTAYMELSSLRSEDTAVYYCARGVRYYFDYWGKGTTVTVSS
VL: DIVMTQSPDSLAVSLGERATINCKSSQSLLDSRTRKNYLAWYQQKPGQPPKLLIYWASTRESGVPDRFSGSGSGTDFTLTISSLQAEDVAVYYCQQQYDPPITFGQGTKLEIK
notes: Engineered clone of humanized 8D4; also called T1-02
On to B2, for which the “percent of cells” value in assay [2] amounted to 95.5%. Besides, in assay [5], the Kd stood at 1800 nM.

B3: T15-02 (antibody, V domains shown)
VH: EVQLVESGGGLVKPGGSLRLSCAASGFTFSSFGMSWVRQAPGKGLELVATIYSNGDYTYYPDSVKGRFTVSRDNAKNSLYLQMNSLRAEDTAVYYCARYYGNYGGYFDYWGQGTLVTVSS
VL: AIQMTQSPSSLSASVGDRVTITCKASQSVSNDVAWYQQKPGKAPKLLIYYASNRYTGVPSRFSGSGSGTDFTLTISSLQPEDFATYYCQQDFWYPPTFGGGTKVEIK
Regarding B3, the “percent of cells” value in assay [2] was 96.9%; in assay [6], 19.3%.

B4: T15-03 (antibody, V domains shown)
VH: EVQLVESGGGLVKPGGSLRLSCAASGFTFSSFGMSWVRQAPGKGLELVATIYSNGDYTYYPDSVKGRFTVSRDNAKNSLYLQMNSLRAEDTAVYYCARYYGNYGGYFDYWGQGTLVTVSS
VL: AIQMTQSPSSLSASVGDRVTITCKASQSVSNDVAWYQQKPGKAPKLLIYYAYMRYTGVPSRFSGSGSGTDFTLTISSLQPEDFATYYCHQDYSSPPTFGGGTKVEIK
B4: the “EC50 (read off the curve); PD-1/PD-L1 Blockade Bioassay, luciferase RAU” value in assay [7] is ~1 µg/mL. Further, the “percent of cells” value was determined as 96.7% in [2] and 10.7% in [6].

B5: T15-04 (antibody, V domains shown)
VH: EVQLVESGGGLVKPGGSLRLSCAASGFTFSSFGMSWVRQAPGKGLELVATIYSNGDYTYYPDSVKGRFTVSRDNAKNSLYLQMNSLRAEDTAVYYCARYYGNYGGYFDYWGQGTLVTVSS
VL: AIQMTQSPSSLSASVGDRVTITCKASQSVSNDVAWYQQKPGKAPKLLIYYAYMRYTGVPSRFSGSGSGTDFTLTISSLQPEDFATYYCQQDYSSPPTFGGGTKVEIK
Take B5: the figures for the “percent of cells” value in assay [2] and in assay [6] were 96.6% and 12.4%, respectively.

B6: T15-05 (antibody, V domains shown)
VH: EVQLVESGGGLVKPGGSLRLSCAASGFTFSSFGMSWVRQAPGKGLELVATIYHSRDYTYYPDSVKGRFTVSRDNAKNSLYLQMNSLRAEDTAVYYCARYYGNYGGYFDYWGQGTLVTVSS
VL: AIQMTQSPSSLSASVGDRVTITCKASQSVSNDVAWYQQKPGKAPKLLIYYASNRYTGVPSRFSGSGSGTDFTLTISSLQPEDFATYYCQQDYSSPPTFGGGTKVEIK
On to B6, for which the results for the “percent of cells” value in [2] and in assay [6] were 97.5% and 16.1%, respectively.

B7: 2-7C5 hybridoma antibody (antibody, V domains shown)
VH: EVQLVESGGGLVQPVGSLKLSCAASGFTFSSFGMSWVRQTPDKRLELVATIYSNGDYTYYPDSVKGRFTVSRDNAKNTLYLQMSSLKSEDTAMYYCARYYGNYGGYFDYWGQGTTLTVSS
VL: SIVMTQTPKFLLVSAGDRVTITCKASQSVSNDVAWYQQKPGQSPKLLIYYASNRYTGAPDRFTGSGYGTDFTFTISTVQAEDLAVYFCQQDYSSPPTFGGGTKLEIK
notes: Mouse hybridoma antibody
Regarding B7, the “IC50 (read off the curve); PD-1/PD-L1 blocking reporter assay, fold induction” value in [8] was ~3 µg/mL. In addition, in [9], the Kd was found to be 17.1 nM, the koff amounted to 0.00127 s⁻¹ and the on-rate constant (kon) was 74200 M⁻¹ s⁻¹.

B8: 4-8D4 hybridoma antibody (antibody, V domains shown)
VH: QVQLQQSGAELAKPGASVKMSCKASGYTFTTYWIHWVKQRPGQGLEWIGYINPTTGYTEYNQKFKDKATLTADKSSNTAYMQLSSLTSEDSAVYYCARGVRYYFDYWGKGTTLTVSS
VL: DIVMSQSPSSLAVSAGEKVTMSCKSSQSLLDSRTRKNYLAWYQQKPGQSPKLLIYWASTRESGVPDRFTGSGSGTDFTLTISSVKAEDLAVYLCKQSYNLITFGAGTKLELK
notes: Mouse hybridoma antibody
As to B8, the “IC50 (read off the curve); PD-1/PD-L1 blocking reporter assay, fold induction” value in [8] was ~3 µg/mL. For the same molecule, in assay [9], the Kd amounted to 15.9 nM, the off-rate constant (koff) was found to be 0.00106 s⁻¹ and the kon is 66700 M⁻¹ s⁻¹.

B9: T14-01 (antibody, V domains shown)
VH: EVQLVESGGGLVQPGGSLRLSCAASGFVFSNYDMSWVRQAPGKGLEWVAYITIGGGTTYYPDTVKGRFTISRDNAKNSLYLQMNSLRAEDTAVYYCARWVYDPLYAMDYWGQGTTVTVSS
VL: DIVLTQTPLSLSVTPGQPASISCRASESVTDYGISFMNWFLQKPGQPPQLLIYAASNQGSGVPDRFSGSGSGTDFTLKISRVEAEDVGVYYCQQSKEVPWTFGQGTKVEIK
Regarding B9, the “percent of cells” value was 96.8% in assay [2] and 17.4% in assay [6].

B10: T14-02 (antibody, V domains shown)
VH: EVQLVESGGGLVQPGGSLRLSCAASGFVFSNYDMSWVRQAPGKGLEWVAYITIGGGTTYYPDTVKGRFTISRDNAKNSLYLQMNSLRAEDTAVYYCARWVYDPLYAMDYWGQGTTVTVSS
VL: DIVLTQTPLSLSVTPGQPASISCRASESVDNYGISFMNWFLQKPGQPPQLLIYAASNQGSGVPDRFSGSGSGTDFTLKISRVEAEDVGVYYCQQSEEVPWTFGQGTKVEIK
Turning to B10, the “percent of cells” value in [2] came out at 96%; in [6] it was 11.8%.

B11: T14-03 (antibody, V domains shown)
VH: EVQLVESGGGLVQPGGSLRLSCAASGFVFSNYDMSWVRQAPGKGLEWVAYITIGGGTTYYPDTVKGRFTISRDNAKNSLYLQMNSLRAEDTAVYYCARWVYDPLYAMDYWGQGTTVTVSS
VL: DIVLTQTPLSLSVTPGQPASISCRASESVTDYGISFMNWFLQKPGQPPQLLIYAASNQGSGVPDRFSGSGSGTDFTLKISRVEAEDVGVYYCQQSEEVPWTFGQGTKVEIK
As for B11, the “percent of cells” value in assay [2] is 90.9%; in assay [6], 9.55%.

B12: T14-04 (antibody, V domains shown)
VH: EVQLVESGGGLVQPGGSLRLSCAASGFVFSNYDMSWVRQAPGKGLEWVAYITIGGGTTYYPDTVKGRFTISRDNAKNSLYLQMNSLRAEDTAVYYCARWRYDPLFAMDYWGQGTTVTVSS
VL: DIVLTQTPLSLSVTPGQPASISCRASESVDNYGISFMNWFLQKPGQPPQLLIYAASNQGSGVPDRFSGSGSGTDFTLKISRVEAEDVGVYYCQQSKEVPWTFGQGTKVEIK
B12: in assay [7], the “EC50 (read off the curve); PD-1/PD-L1 Blockade Bioassay, luciferase RAU” value is ~0.8 µg/mL. Besides, the “percent of cells” value was found to be 95% in [2] and 17.1% in [6].
